Where a chain is given by its changes, count along the chain named. Names and notes keep the numbering of the source.
Key:
Assay in all cases: SEC
[1] = biological target: T1, S100A9(C3S) with H105A (S100A9 subunit of CP-Ser(H105A)) (human, UniProt P06702 1-114, C3S | H105A)
T1 sequence (looked up): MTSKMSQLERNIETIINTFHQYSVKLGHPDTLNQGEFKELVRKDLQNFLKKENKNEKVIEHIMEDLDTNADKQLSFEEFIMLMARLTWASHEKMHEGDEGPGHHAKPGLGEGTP

[2] = biological target: T2, S100A9(C3S) (human, UniProt P06702 1-90, C3S)
T2 sequence: T1 sequence (looked up) with A105H

[3] = biological target: T3, S100A9(C3S) with E96A (S100A9 subunit of CP-Ser(E96A)) (human, UniProt P06702 1-114, C3S | E96A)
T3 sequence (looked up): T1 sequence (looked up) with E96A, A105H

[4] = biological target: T4, S100A9(C3S) truncated after residue 101 (S100A9 subunit of CP-Ser-Δ101) (human, UniProt P06702 1-90, C3S)
T4 sequence: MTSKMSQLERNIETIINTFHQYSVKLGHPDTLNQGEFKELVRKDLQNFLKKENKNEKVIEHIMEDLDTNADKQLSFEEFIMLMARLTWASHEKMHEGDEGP

[5] = biological target: T5, S100A9(C3S) with E111A (S100A9 subunit of CP-Ser(E111A)) (human, UniProt P06702 1-114, C3S | E111A)
T5 sequence (looked up): T1 sequence (looked up) with A105H, E111A

[6] = biological target: T6, human-mouse S100A9 chimera (S100A9 subunit of CP-Ser-mT) (human | mouse, UniProt P06702 1-90, C3S)
T6 sequence: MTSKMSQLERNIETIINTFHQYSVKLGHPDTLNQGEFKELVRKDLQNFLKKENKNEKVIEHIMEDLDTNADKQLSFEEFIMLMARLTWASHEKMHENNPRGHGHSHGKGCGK

[7] = biological target: T7, S100A9(C3S) with E99A (S100A9 subunit of CP-Ser(E99A)) (human, UniProt P06702 1-114, C3S | E99A)
T7 sequence (looked up): T1 sequence (looked up) with E99A, A105H

[8] = biological target: T8, S100A9(C3S) with H104A (S100A9 subunit of CP-Ser(H104A)) (human, UniProt P06702 1-114, C3S | H104A)
T8 sequence (looked up): T1 sequence (looked up) with H104A, A105H

[9] = biological target: T9, S100A9(C3S) with K106A (S100A9 subunit of CP-Ser(K106A)) (human, UniProt P06702 1-114, C3S | K106A)
T9 sequence (looked up): T1 sequence (looked up) with A105H, K106A

[10] = biological target: T10, S100A9(C3S) with H103A (S100A9 subunit of CP-Ser(H103A)) (human, UniProt P06702 1-114, C3S | H103A)
T10 sequence (looked up): T1 sequence (looked up) with H103A, A105H

[11] = biological target: T11, S100A9(C3S) with D98A (S100A9 subunit of CP-Ser(D98A)) (human, UniProt P06702 1-114, C3S | D98A)
T11 sequence (looked up): T1 sequence (looked up) with D98A, A105H

Measured: binding result

B1: S100A8(C42S) (natural protein, human)
chain: MLTELEKALNSIIDVYHKYSLIKGNFHAVYRDDLKKLLETESPQYIRKKGADVWFKELDINTDGAVNFQEFLILVIKMGVAAHKKSHEESHKE
binds: all assays above

Source: publication PMC3892207 (Journal of the American Chemical Society, 2013)
